According to US20200002434A1 (BIOSION, published 2020):
Substitutions are numbered along the chain they refer to. Names and notes keep the numbering of the source.

Assays:
[1] = target: T1, recombinant human ErbB2 extracellular domain (ErbB2-ECD) (human, UniProt P04626 23-652); test: capture ELISA, recombinant ErbB2-ECD
T1 construct: extracellular domain; Coated on plates or used biotin-labeled in solution (capture ELISA); also called Human ErbB2-ECD; rhErbB2

[2] = target: T1, recombinant human ErbB2 extracellular …; test: capture ELISA, recombinant ErbB2-ECD; remark: listed apart in the source
[3] = target: T2, recombinant Macaca mulatta ErbB2-ECD (Macaca mulatta, UniProt I0FM22 23-652); test: indirect ELISA, coated ErbB2-ECD
T2 construct: extracellular domain
Experimental: (§1) Using indirect ELISA described in Example 1, the binding activity of antibodies of this invention to recombinant ErbB2-ECD derived from different species such as mouse, rat, Macaca mulatta, Macaca fascicularis and human, was examined. Briefly. Coat 96-well ELISA plates with 1 ug/ml recombinant ErbB2-ECD of different species with 100 ul/well and incubate at 4° C. for overnight. Remove the coating solution by discarding and tapping gently on a filter paper. Add 200 ul/well blocking buffer, incubate at 37° C. for 1-2 hours. Add purified antibody of this invention and incubate at 37° C. for one hour. Wash the plate 3 times with PBST, add goat anti-mouse IgG-HRP 100 ul/well, incubate at 37° C. for one hour. Wash the plate 3 times with PBST, add 100 ul/well TMB after 15 min, add 50 ul/well 1N HCl. Read the plate with Microplate Reader at 450 nm wavelength.
(§2) Following the same method described in Example 5, the binding activity of the chimeric antibodies of this invention was examined for binding recombinant ErbB2-ECD derived from different species such as mouse, rat Macaca mulatta, Macaca fasciculari and human.

[4] = target: T3, recombinant rat ErbB2-ECD (rat, UniProt P06494 23-654); test: indirect ELISA, coated ErbB2-ECD
T3 construct: extracellular domain
Experimental: as §1, §2

[5] = target: T4, recombinant mouse ErbB2-ECD (mouse, UniProt P70424 23-653); test: indirect ELISA, coated ErbB2-ECD
T4 construct: extracellular domain
Experimental: as §1, §2

[6] = target: T1, recombinant human ErbB2 extracellular …; test: capture ELISA, recombinant ErbB2-ECD; remark: listed apart in the source
Experimental: (§3) The corresponding purified IgG of five antibodies of this invention were also evaluated for their binding activity to recombinant human ErbB2 by capture ELISA. The procedure is briefly described as following: The 96-well plates were coated with 0.5 μg/ml anti-ErbB2 antibody overnight, blocked by 1% BSA in PBST at 37° C. for one hour. Add serial diluted sample of biotin-human ErbB2-ECD started with 2 μg/ml with 1:5 serial dilution. Wash the plate 3 times with PBST and add 100 ul of HRP-streptavidin (1:5000) to each well. Incubate for another 40 min at 37° C. Wash the plate 3 times with PBST and add 100 ul/well of TMB to develop at RT for 15 min followed by quenching with 50 ul 1N HCl. Read the plates at 450 nm for OD's value. Calculate the binding EC50 by using Prism software and the results are in Table 8 below
The variable domains of the heavy and light chain of the anti-ErbB2 monoclonal antibodies (Table 12, above) were cloned in-frame to human IgG1 heavy-chain and kappa light-chain constant regions, respectively.

[7] = target: T5, human ErbB2 on ErbB2-positive cells (human, UniProt P04626 23-1255); test: cell-based or functional assay
[8] = target: T2, recombinant Macaca mulatta ErbB2-ECD; test: indirect ELISA, coated ErbB2-ECD 1 ug/ml
Experimental: as §1

[9] = target: T3, recombinant rat ErbB2-ECD; test: indirect ELISA, coated ErbB2-ECD 1 ug/ml
Experimental: as §1

[10] = target: T4, recombinant mouse ErbB2-ECD; test: indirect ELISA, coated ErbB2-ECD 1 ug/ml
Experimental: as §1

[11] = target: T1, recombinant human ErbB2 extracellular …; test: capture ELISA, coated antibody, biotin-human ErbB2-ECD titrated
Experimental: as §3

[12] = target: T5, human ErbB2 on ErbB2-positive cells; test: cell-based or functional assay; remark: listed apart in the source

T4 sequence (P70424 23-653): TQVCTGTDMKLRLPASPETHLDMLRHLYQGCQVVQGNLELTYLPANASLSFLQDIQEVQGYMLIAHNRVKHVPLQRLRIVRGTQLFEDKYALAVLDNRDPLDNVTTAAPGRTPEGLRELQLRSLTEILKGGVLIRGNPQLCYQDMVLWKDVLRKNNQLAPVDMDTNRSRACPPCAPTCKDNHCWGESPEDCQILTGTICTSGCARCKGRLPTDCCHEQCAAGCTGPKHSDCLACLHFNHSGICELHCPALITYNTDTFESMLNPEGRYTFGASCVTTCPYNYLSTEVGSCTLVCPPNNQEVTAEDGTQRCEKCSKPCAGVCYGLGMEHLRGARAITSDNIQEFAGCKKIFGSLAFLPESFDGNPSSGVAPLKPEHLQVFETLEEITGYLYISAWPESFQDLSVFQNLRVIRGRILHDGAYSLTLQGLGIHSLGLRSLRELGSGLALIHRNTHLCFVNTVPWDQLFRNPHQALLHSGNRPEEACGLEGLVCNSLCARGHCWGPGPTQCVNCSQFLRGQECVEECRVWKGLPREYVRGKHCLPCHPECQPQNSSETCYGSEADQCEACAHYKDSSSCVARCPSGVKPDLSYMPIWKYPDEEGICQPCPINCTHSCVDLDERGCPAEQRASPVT
T3 sequence (P06494 23-654): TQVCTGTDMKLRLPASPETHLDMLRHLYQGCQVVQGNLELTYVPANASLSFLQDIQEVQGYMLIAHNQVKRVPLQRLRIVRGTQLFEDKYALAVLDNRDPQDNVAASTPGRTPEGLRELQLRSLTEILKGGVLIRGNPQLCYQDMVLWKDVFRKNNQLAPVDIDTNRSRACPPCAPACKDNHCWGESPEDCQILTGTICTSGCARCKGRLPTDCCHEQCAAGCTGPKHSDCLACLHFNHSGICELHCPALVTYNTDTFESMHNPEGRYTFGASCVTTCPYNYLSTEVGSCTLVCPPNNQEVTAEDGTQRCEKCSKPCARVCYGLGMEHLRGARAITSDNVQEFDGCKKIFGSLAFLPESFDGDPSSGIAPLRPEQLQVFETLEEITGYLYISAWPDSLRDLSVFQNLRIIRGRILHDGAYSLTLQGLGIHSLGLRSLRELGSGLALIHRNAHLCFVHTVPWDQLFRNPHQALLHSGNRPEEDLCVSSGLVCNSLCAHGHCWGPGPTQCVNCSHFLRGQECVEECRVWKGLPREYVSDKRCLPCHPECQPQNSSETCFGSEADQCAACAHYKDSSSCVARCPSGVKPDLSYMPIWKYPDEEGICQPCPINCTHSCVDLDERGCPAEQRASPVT

B1: 5F12.v2 humanized antibody (antibody, V domains shown)
VH: EVQLVQSGAEVKKPGSSVKVSCKASGYTFTSYTMHWIRQAPGQGLEWIGYINPSSSYTNYNQNFKDRATLTADKSTSTAYMELSSLRSEDTAVYYCARASSYSLDYWGQGTLVTVSS
VL: DIQMTQSPSSLSASVGDRVTITCKASQDINKYIAWYQQKPGKGPKLLIHSTSTLYPGIPSRFSGSGSGKDYTFTISSLQPEDIATYYCLQYDNLLWTFGQGTKVEIK
notes: VH.v1/VL.1, back mutations 0/H38Q
EC50 [1]: 34 pM

B2: 5G9.v1 humanized antibody (antibody, V domains shown)
VH: EVQLVQSGAEVKKPGSSVKVSCKTSGYTFSSYTIHWVRQAPGQGLEWIGYINPSSDYTAYNQKFRDRATLTADQSTNTAYMELSSLRSEDTAVYYCARASAFSLDFWGQGTLVTVSS
VL: B1 VL with Q27H, N30D, K31R, Q38H, S50Y, Y55Q, K69R, F73L, I83V, Q90N
notes: VH.v1/VL.v1, back mutations 0/0
EC50 [2]: 31 pM

B3: 5F12.v3 humanized antibody (antibody, V domains shown)
VH: B1 VH
VL: B1 VL with Q38H, G43A
notes: VH.v1/VL.2, back mutations 0/G43A
EC50 [1]: 26 pM

B4: 5G9.v8 humanized antibody (antibody, V domains shown)
VH: B2 VH with A68V
VL: B1 VL with Q27H, N30D, K31R, Q38H, S50Y, Y55Q, K69R, F73L, I83V, Q90N
notes: VH.1/VL.v1, back mutations A67V/0
EC50 [2]: 165 pM

B5: 5F12.v10 humanized antibody (antibody, V domains shown)
VH: B1 VH with A68V
VL: B1 VL with Q38H
notes: VH.3/VL.v1, back mutations A67V/0
EC50 [1]: 32 pM

B6: 5F12.v5 humanized antibody (antibody, V domains shown)
VH: B1 VH
VL: B1 VL with Q38H, I58V
notes: VH.v1/VL.4, back mutations 0/I58V
EC50 [1]: 28 pM

B7: 5F12.v8 humanized antibody (antibody, V domains shown)
VH: B1 VH with I37V
VL: B1 VL with Q38H
notes: VH.1/VL.v1, back mutations I37V/0
EC50 [1]: 18 pM

B8: 5G9.v5 humanized antibody (antibody, V domains shown)
VH: B2 VH
VL: DIQMTQSPSSLSASVGDRVTITCKASHDIDRYIAWYQHKPGKGPKLLIHYTSTLQPGVPSRFSGSGSGRDYTLTISSLQPEDVATYYCLNYDNLLWTFGQGTKVEIK
notes: as for B6
EC50 [2]: 13 pM

B9: 5G9.v2 humanized antibody (antibody, V domains shown)
VH: B2 VH
VL: B8 VL with H38Q, V58I
notes: as for B1
EC50 [2]: 62 pM

B10: 5F12.v11 humanized antibody (antibody, V domains shown)
VH: B1 VH with L70I
VL: B1 VL with Q38H
notes: VH.4/VL.v1, back mutations L69I/0
EC50 [1]: 28 pM

B11: 5G9.v12 humanized antibody (antibody, V domains shown)
VH: B2 VH with I48M
VL: B8 VL with V58I
notes: VH.5/VL.v1, back mutations I48M/0
EC50 [2]: 29 pM

B12: 5F12.v6 humanized antibody (antibody, V domains shown)
VH: B1 VH
VL: B1 VL with Q38H, K69T
notes: VH.v1/VL.5, back mutations 0/K69T
EC50 [1]: 32 pM

B13: 5G9.v11 humanized antibody (antibody, V domains shown)
VH: B2 VH with N77S
VL: B8 VL with V58I
notes: VH.4/VL.v1, back mutations N76S/0
EC50 [2]: 81 pM

B14: 5G9.v10 humanized antibody (antibody, V domains shown)
VH: B2 VH with Q74K
VL: B8 VL with V58I
notes: VH.3/VL.v1, back mutations Q73K/0
EC50 [2]: 29 pM

B15: 5G9.v7 humanized antibody (antibody, V domains shown)
VH: B2 VH
VL: B8 VL with V58I, Y71F
notes: VH.v1/VL.6, back mutations 0/Y71F
EC50 [2]: 53 pM

B16: 5F12.v9 humanized antibody (antibody, V domains shown)
VH: B1 VH with I48M
VL: B1 VL with Q38H
notes: VH.2/VL.v1, back mutations I48M/0
EC50 [1]: 23 pM

B17: 5F12.v7 humanized antibody (antibody, V domains shown)
VH: B1 VH
VL: B1 VL with Q38H, Y71F
notes: as for B15
EC50 [1]: 152 pM

B18: 5G9.v6 humanized antibody (antibody, V domains shown)
VH: B2 VH
VL: B8 VL with V58I, R69T
notes: VH.v1/VL.5, back mutations 0/R69T
EC50 [2]: 44 pM

B19: 5G9.v4 humanized antibody (antibody, V domains shown)
VH: B2 VH
VL: B8 VL with H49Y, V58I
notes: VH.v1/VL.3, back mutations 0/H49Y
EC50 [2]: 72 pM

B20: 5G9.v9 humanized antibody (antibody, V domains shown)
VH: B2 VH with L70I
VL: B8 VL with V58I
notes: VH.2/VL.v1, back mutations L69I/0
EC50 [2]: 54 pM

B21: 5G9.v3 humanized antibody (antibody, V domains shown)
VH: B2 VH
VL: B8 VL with G43V, V58I
notes: VH.v1/VL.2, back mutations 0/G43V
EC50 [2]: 23 pM

B22: 5F12 chimera (antibody, V domains shown)
VH: QVQLQQSGAELARPGASVKMSCKASGYTFTSYTMHWIKQRPGQGLEWIGYINPSSSYTNYNQNFKDKATLTADKSSSTANMQLNSLTSEDSAVYYCARASSYSLDYWGQGTALTVSS
VL: DIQMTQSPSSLSTSLGGKVTITCKASQDINKYIAWYQHKPGKGPRLLIHSTSTLYPGIPSRFSGSGSGKDYSFRITNLEPEDIATYYCLQYDNLLWTFGGGTKLGIR
notes: also called 5F12 chimeric; 5F12 chimeric antibody
binding result [3]: binds | binding result [4]: no binding | binding result [5]: no binding | EC50 [6]: 24 pM | EC50 [1]: 43 pM

B23: 5G9 mouse anti-ErbB2 monoclonal antibody (antibody, mouse IgG1, V domains shown)
VH: QVQLQQSGAELARPGASVKMSCKTSGYTFSSYTIHWVKQRPGQGLDWIGYINPSSDYTAYNQKFRDKATLTADQSSNTAYMQLSSLASADSAVYYCARASAFSLDFWGQGTTLTVSS
VL: DIQMTQSPSSLSASLGGKVTISCKASHDIDRYIAWYQHKPGKGPRLLIHYTSTLQPGIPSRFSGSGSGRDYSFSISNLEPEDVATYYCLNYDNLLWTFGGGTKLEIT
notes: also called 5G91B42A3; IgG 5G9
BT474 cell proliferation inhibition IC50 (hIgG + 5G9) [7]: ~1330 pM | binding result [8]: binds | binding result [9]: no binding | binding result [10]: no binding | EC50 [11]: 499 pM

B24: 4C9 chimera (antibody, V domains shown)
VH: B23 VH with T24A, S30T, I34M, D56G, A59T, R65K, Q74K, N77S, F102Y, F106Y
VL: B23 VL with K18R, S22T, V83I, N90K
notes: also called 4C9 chimeric antibody
binding result [3]: binds | binding result [4]: no binding | binding result [5]: no binding | EC50 [6]: 114 pM

B25: 4C9 mouse anti-ErbB2 monoclonal antibody (antibody, mouse IgG1, V domains shown)
VH: B23 VH with T24A, S30T, I34M, D56G, A59T, R65K, Q74K, N77S, F102Y, F106Y
VL: B23 VL with K18R, S22T, V83I, N90K
notes: also called 4C9G3F5; IgG 4C9
BT474 cell proliferation inhibition IC50 (hIgG + 4C9) [7]: 471 pM | Internalization rate in SKBR3 cells, FITC signal, 2-hour [12]: 23.8 | binding result [8]: binds | binding result [9]: no binding | binding result [10]: no binding | EC50 [11]: 142 pM

B26: 4H2 mouse anti-ErbB2 monoclonal antibody (antibody, mouse IgG1, V domains shown)
VH: QVQLQQSGAELARPGASVKMSCKASGFTFTSYTIHWVKQRPGQGLDWIGYINPSSGYTTYNQRFKDKATLTADKSSSTAYMQLSSLTSADSAVYYCARASAYSLDYWGQGTTLTVSS
VL: B23 VL with S22T, H27Q, D70N, V83I, N90K, T107K
notes: also called 4H2H2H9; IgG 4H2
BT474 cell proliferation inhibition IC50 (hIgG + 4H2) [7]: ~1160 pM | Internalization rate in SKBR3 cells, FITC signal, 2-hour [12]: 17.7 | binding result [8]: binds | binding result [9]: no binding | binding result [10]: no binding | EC50 [11]: 117 pM
